Patent US20170165365A1 (SYMPHOGEN A S, published 2017)
Values belong to the binder of their own block, whether it stands above or below them.

Key:
[1] = biological target: T1, human EGFR antigen (Sino Biologicals) (human, UniProt P00533 25-645); test: ELISA, coated hu EGFR
T1 construct: Bought soluble antigen; also called human antigen
Experimental: (§1) Antibody-antigen binding was measured by ELISA with coated antigens. Human antigens were obtained from Sino Biologicals. All other antigens were produced in-house by transient expression in CHO or HEK293 cells. Chimeric and humanized antibodies, as well as an isotype control antibody, were incubated with the coated antigens at different concentrations. After wash, bound antibodies were detected by HRP-(horse radish peroxidase)-conjugated secondary antibodies.

mouse EGFR antigen [2] = biological target: T2, mouse EGFR antigen (mouse, UniProt Q01279 25-647, limits assumed); test: ELISA, coated mu EGFR
T2 construct: In-house antigen coated for ELISA; also called mouse antigen; murine EGFR
How it was run: (§2)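 Coated antigen ELISA; non-human antigens transiently expressed in-house (CHO or HEK293). Chimeric/humanized Abs plus isotype control titrated over several concentrations; wash; HRP-conjugated secondary detection.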

[3] = biological target: cynomolgus HER2 antigen (cynomolgus monkey); test: SPR (ProteOn XPR36), IgG captured by anti-human Fc, soluble monovalent antigen, 1:1 fit
mouse HER2 antigen [4] = biological target: T3, mouse HER2 antigen (mouse, UniProt P70424 23-653, limits assumed); test: ELISA, coated mu HER2
T3 construct: In-house antigen coated for ELISA; also called mouse antigen; murine HER2
How it was run: as §2

mouse HER3 antigen [5] = biological target: T4, mouse HER3 antigen (mouse, UniProt Q61526 20-641, limits assumed); test: ELISA, coated mu HER3
T4 construct: In-house antigen coated for ELISA; also called mouse antigen; murine HER3
How it was run: as §2

cynomolgus EGFR antigen [6] = biological target: T5, cynomolgus EGFR antigen (cynomolgus monkey, UniProt A0A2K5WK39 25-645); test: ELISA, coated cy EGFR
T5 construct: In-house antigen; also called cynomolgus antigen
Experimental: as §1

murine HER4 antigen [7] = biological target: T6, murine HER4 antigen (mouse, UniProt Q61527 26-652, limits assumed); test: ELISA, coated mu HER4
T6 construct: In-house antigen coated for ELISA; also called mouse HER4
T6 sequence (looked up): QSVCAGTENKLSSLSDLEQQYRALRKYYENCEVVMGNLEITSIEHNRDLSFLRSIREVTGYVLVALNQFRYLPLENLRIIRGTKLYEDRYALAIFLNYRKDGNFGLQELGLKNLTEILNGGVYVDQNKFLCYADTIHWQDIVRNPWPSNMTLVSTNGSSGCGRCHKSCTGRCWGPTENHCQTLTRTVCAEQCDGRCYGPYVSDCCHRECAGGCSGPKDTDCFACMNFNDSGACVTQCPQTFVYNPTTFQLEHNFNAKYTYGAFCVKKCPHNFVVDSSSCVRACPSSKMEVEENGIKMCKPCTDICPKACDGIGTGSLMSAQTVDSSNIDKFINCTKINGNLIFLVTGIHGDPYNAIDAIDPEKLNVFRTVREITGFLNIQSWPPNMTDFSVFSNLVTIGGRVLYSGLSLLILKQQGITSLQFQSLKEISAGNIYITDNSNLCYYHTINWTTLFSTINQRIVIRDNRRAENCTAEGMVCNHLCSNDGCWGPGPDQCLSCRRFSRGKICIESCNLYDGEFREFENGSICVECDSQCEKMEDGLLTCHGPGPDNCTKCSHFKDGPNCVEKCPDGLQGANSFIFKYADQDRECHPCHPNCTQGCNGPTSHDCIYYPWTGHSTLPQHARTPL
How it was run: as §2

cynomolgus HER3 antigen [8] = biological target: T7, cynomolgus HER3 antigen (cynomolgus monkey, UniProt G7PIG5 20-643); test: ELISA, coated cy HER3
T7 construct: In-house antigen; also called cynomolgus antigen
How it was run: as §2

[9] = biological target: T8, human HER3 antigen (Sino Biologicals) (human, UniProt P21860 20-643); test: ELISA, coated hu HER3
T8 construct: Bought soluble antigen; also called human antigen
How it was run: as §2

human HER4 antigen [10] = biological target: T9, human HER4 antigen (human, UniProt Q15303 26-649, limits assumed); test: ELISA, coated hu HER4
T9 construct: Antigen coated for ELISA
T9 sequence (looked up): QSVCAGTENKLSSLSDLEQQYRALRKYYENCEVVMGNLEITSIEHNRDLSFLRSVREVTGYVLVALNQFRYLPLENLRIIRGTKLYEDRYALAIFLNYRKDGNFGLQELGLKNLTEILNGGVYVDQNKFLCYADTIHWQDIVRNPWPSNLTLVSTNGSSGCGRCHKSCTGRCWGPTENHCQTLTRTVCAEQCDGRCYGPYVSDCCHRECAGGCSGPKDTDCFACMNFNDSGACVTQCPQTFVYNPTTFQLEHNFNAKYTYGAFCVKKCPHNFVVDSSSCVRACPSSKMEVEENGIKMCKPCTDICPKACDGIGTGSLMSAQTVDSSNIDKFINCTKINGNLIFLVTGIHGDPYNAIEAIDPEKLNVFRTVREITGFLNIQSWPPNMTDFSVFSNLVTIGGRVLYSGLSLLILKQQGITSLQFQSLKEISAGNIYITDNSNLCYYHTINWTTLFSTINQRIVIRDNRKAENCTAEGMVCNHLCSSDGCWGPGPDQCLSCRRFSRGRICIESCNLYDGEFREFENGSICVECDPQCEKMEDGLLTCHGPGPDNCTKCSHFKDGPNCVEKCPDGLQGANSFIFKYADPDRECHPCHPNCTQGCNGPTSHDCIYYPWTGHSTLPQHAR
How it was run: as §2

[11] = biological target: T10, human HER2 antigen (Sino Biologicals) (human, UniProt P04626 23-652); test: SPR (ProteOn XPR36), IgG captured by anti-human Fc, soluble monovalent antigen, 1:1 fit
T10 construct: Bought soluble antigen; also called human antigen
How it was run: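 Whole IgG captured on a mouse anti-human Fc surface; monovalent antigen injected at 50 μl/min as threefold serial dilutions from 100 nM stock.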

cynomolgus HER3 antigen [12] = biological target: T7, cynomolgus HER3 antigen; test: ELISA on coated antigen
Experimental: as §1

mouse EGFR antigen [13] = biological target: T2, mouse EGFR antigen; test: ELISA on coated antigen
Experimental: as §1

mouse HER3 antigen [14] = biological target: T4, mouse HER3 antigen; test: ELISA on coated antigen
Experimental: as §1

human HER4 antigen [15] = biological target: T9, human HER4 antigen; test: ELISA on coated antigen
Experimental: as §1

cynomolgus EGFR antigen [16] = biological target: T5, cynomolgus EGFR antigen; test: ELISA on coated antigen
Experimental: as §1

[17] = biological target: T8, human HER3 antigen (Sino Biologicals); test: ELISA on coated antigen
Experimental: as §1

murine HER4 antigen [18] = biological target: T6, murine HER4 antigen; test: ELISA on coated antigen
Experimental: as §1

mouse HER2 antigen [19] = biological target: T3, mouse HER2 antigen; test: ELISA on coated antigen
Experimental: as §1

[20] = biological target: T1, human EGFR antigen (Sino Biologicals); test: ELISA on coated antigen
Experimental: as §1

T4 sequence (Q61526 20-641 limits assumed): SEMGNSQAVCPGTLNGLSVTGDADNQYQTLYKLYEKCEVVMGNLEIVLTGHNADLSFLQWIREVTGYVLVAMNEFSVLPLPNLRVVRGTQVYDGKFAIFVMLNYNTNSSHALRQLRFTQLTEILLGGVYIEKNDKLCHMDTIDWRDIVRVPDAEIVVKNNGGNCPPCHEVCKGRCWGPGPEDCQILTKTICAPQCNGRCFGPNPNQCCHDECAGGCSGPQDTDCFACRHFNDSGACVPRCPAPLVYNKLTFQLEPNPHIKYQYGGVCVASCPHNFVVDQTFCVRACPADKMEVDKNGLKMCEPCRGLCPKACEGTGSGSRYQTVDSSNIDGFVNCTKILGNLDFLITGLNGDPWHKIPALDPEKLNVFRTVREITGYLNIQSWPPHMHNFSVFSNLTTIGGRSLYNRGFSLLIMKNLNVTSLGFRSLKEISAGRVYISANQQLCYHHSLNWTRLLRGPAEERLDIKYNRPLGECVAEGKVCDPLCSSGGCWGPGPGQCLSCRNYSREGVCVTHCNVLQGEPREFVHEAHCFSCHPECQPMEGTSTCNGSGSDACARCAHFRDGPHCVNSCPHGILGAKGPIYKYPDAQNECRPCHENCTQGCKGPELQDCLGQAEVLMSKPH
T3 sequence (P70424 23-653 limits assumed): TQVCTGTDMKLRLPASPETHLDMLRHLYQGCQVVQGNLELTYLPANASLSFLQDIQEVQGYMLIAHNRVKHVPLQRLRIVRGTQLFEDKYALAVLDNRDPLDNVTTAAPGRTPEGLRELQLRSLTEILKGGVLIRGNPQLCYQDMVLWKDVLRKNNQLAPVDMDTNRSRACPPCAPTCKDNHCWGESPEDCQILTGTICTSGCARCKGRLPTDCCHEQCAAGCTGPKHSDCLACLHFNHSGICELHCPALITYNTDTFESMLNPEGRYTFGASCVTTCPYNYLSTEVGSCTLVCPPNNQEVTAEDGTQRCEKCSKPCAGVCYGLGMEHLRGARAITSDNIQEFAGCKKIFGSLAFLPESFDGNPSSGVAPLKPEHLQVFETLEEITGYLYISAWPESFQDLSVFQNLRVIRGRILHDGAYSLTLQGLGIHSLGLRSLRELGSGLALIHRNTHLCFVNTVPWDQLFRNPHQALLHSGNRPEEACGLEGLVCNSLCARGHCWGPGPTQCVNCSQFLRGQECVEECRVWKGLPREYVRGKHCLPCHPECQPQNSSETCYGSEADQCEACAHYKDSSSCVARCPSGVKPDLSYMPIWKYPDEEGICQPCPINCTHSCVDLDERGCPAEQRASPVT
T7 sequence (G7PIG5 entry or part of it): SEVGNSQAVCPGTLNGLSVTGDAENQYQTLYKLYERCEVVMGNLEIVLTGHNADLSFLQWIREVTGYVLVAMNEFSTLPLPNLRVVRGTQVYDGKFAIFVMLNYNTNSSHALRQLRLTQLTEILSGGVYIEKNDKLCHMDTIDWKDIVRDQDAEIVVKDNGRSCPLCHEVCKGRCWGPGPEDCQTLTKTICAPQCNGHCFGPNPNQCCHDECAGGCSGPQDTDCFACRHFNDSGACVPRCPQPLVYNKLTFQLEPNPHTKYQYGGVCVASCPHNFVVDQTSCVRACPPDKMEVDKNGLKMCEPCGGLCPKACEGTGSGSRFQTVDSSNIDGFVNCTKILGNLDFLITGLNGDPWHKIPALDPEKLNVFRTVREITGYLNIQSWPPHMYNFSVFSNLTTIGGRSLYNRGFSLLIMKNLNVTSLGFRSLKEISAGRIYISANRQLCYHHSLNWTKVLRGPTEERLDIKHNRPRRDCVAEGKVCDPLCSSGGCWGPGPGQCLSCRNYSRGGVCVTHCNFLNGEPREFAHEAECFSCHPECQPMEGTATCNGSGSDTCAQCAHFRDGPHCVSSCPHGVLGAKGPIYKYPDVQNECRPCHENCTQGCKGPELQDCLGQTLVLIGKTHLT

binding result [1]: no binding (tested: 40 nM) | binding result (mouse EGFR antigen [2]): no binding (tested: 40 nM) | Kd [3]: 3.7 nM | koff [3]: 0.00086 s⁻¹ | kon [3]: 230000 M⁻¹ s⁻¹ | binding result (mouse HER2 antigen [4]): no binding (tested: 40 nM) | binding result (mouse HER3 antigen [5]): no binding (tested: 40 nM) | binding result (cynomolgus EGFR antigen [6]): no binding (tested: 40 nM) | binding result (murine HER4 antigen [7]): no binding (tested: 40 nM) | binding result (cynomolgus HER3 antigen [8]): no binding (tested: 40 nM) | binding result [9]: no binding (tested: 40 nM) | binding result (human HER4 antigen [10]): no binding (tested: 40 nM) | Kd [11]: 1.1 nM | koff [11]: 0.00029 s⁻¹ | kon [11]: 260000 M⁻¹ s⁻¹
B1: chimeric anti-HER2 antibody 4517 (antibody, V domains shown)
VH: EVQLVESGGDLVKPGGSLKLSCAASGFTFSSYGMSWVRLTPDKRLEWVATISGGGSYTYYPDSVKGRFTISRDIAKSTLYLQMSSLKSEDTAVYYCARKGNYGNYGKLAYWGQGTSVTVS
VL: DIQMTQSPASLSVSVGETVTITCRASENIYSNLAWYQQEQGKSPQLLVYAATNLADGVPSRFSGSGSGTQYSLKINSLQSEDFGSYYCQHFWGTPWTFGGGTKLEIKR
notes: light chain entry is full length

Kd [3]: 2.5 nM | koff [3]: 0.00038 s⁻¹ | kon [3]: 150000 M⁻¹ s⁻¹
B2: humanized anti-HER2 antibody 11249 (antibody, V domains shown)
VH: QVQLVQSGAEVKKPGASVKVSCKASGYTFTSHWMHWVRQAPGQGLEWMGNINPSSGGTNYNEKFKSRVTMTVDTSTSTVYMELSSLRSEDTAVYYCARAYYDFSWFVYWGQGTLVTVSS
VL: DIQMTQSPSSLSASVGDRVTITCRSSQDISNYLNWYQQKPGKAPKLLMYISRLHSGVPSRFSGSGSGTDYTFTISSLQPEDIATYYCQQGNTLPLTFGGGTKVEIK
binding result (cynomolgus HER3 antigen [12]): no binding (tested: 40 nM antibody (negative: OD<0.1)) | binding result (mouse EGFR antigen [13]): no binding (tested: 40 nM antibody (negative: OD<0.1)) | binding result (mouse HER3 antigen [14]): no binding (tested: 40 nM antibody (negative: OD<0.1)) | binding result (human HER4 antigen [15]): no binding (tested: 40 nM antibody (negative: OD<0.1)) | binding result (cynomolgus EGFR antigen [16]): no binding (tested: 40 nM antibody (negative: OD<0.1)) | binding result [17]: no binding (tested: 40 nM antibody (negative: OD<0.1)) | binding result (murine HER4 antigen [18]): no binding (tested: 40 nM antibody (negative: OD<0.1)) | binding result (mouse HER2 antigen [19]): no binding (tested: 40 nM antibody (negative: OD<0.1)) | binding result [20]: no binding (tested: 40 nM antibody (negative: OD<0.1))
